Data published in patent US20150344570A1 (published 2015).

T1: FcγRIIa R (FcγRIIa allotype with Arg at position 131), extracellular domain with C-terminal His tag (human, UniProt P12318 34-217)
T1 construct: extracellular domain; made in FreeStyle293 cells; analyte in the Biacore assay; also called FcγRIIa type R; 2aR
T1 sequence (looked up): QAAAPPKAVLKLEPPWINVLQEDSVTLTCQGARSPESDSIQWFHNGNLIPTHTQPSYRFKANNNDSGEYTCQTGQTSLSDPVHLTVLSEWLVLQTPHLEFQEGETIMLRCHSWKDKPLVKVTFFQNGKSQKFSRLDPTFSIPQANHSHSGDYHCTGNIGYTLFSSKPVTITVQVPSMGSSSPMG

T2: FcγRIIb, extracellular domain with C-terminal His tag (human, UniProt P31994 43-217)
T2 construct: extracellular domain; made in FreeStyle293 cells; analyte in the Biacore assay; also called 2b; FcgRIIb
T2 sequence (looked up): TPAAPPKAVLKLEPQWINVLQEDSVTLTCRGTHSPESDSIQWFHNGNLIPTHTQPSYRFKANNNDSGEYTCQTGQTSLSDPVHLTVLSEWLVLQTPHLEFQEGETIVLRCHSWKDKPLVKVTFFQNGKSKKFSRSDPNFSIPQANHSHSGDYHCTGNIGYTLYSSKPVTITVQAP

B1: GpH7-A5/GpH7-B3 variant S337_02A/GpL16-k0 (antibody, human IgG1, kappa)
heavy 1: not shown
heavy 2: not shown
light: DIVMTQSPLSLPVTPGEPASISCQASESLVHSNRNTYLHWYLQKPGQSPQLLIYKVSNRFSGVPDRFSGSGSGTDFTLKISRVEAEDVGVYYCSQNTHVPPTFGQGTKVEIERTVAAPSVFIFPPSDEQLKSGTASVVCLLNNFYPREAKVQWKVDNALQSGNSQESVTEQDSKDSTYSLSSTLTLSKADYEKHKVYACEVTHQGLSSPVTKSFNRGEC
notes: heterodimerized IgG1, mutation in one H chain only; also called He Ab
B2: GpH7-A5/GpH7-B3 variant S337_03V/GpL16-k0 (antibody, human IgG1, kappa)
heavy 1: not shown
heavy 2: not shown
light: DIVMTQSPLSLPVTPGEPASISCQASESLVHSNRNTYLHWYLQKPGQSPQLLIYKVSNRFSGVPDRFSGSGSGTDFTLKISRVEAEDVGVYYCSQNTHVPPTFGQGTKVEIERTVAAPSVFIFPPSDEQLKSGTASVVCLLNNFYPREAKVQWKVDNALQSGNSQESVTEQDSKDSTYSLSSTLTLSKADYEKHKVYACEVTHQGLSSPVTKSFNRGEC
notes: as for B1
B3: GpH7-A5/GpH7-B3 variant S337_04F/GpL16-k0 (antibody, human IgG1, kappa)
heavy 1: not shown
heavy 2: not shown
light: DIVMTQSPLSLPVTPGEPASISCQASESLVHSNRNTYLHWYLQKPGQSPQLLIYKVSNRFSGVPDRFSGSGSGTDFTLKISRVEAEDVGVYYCSQNTHVPPTFGQGTKVEIERTVAAPSVFIFPPSDEQLKSGTASVVCLLNNFYPREAKVQWKVDNALQSGNSQESVTEQDSKDSTYSLSSTLTLSKADYEKHKVYACEVTHQGLSSPVTKSFNRGEC
notes: as for B1
B4: GpH7-A5/GpH7-B3 variant S337_06M/GpL16-k0 (antibody, human IgG1, kappa)
heavy 1: not shown
heavy 2: not shown
light: DIVMTQSPLSLPVTPGEPASISCQASESLVHSNRNTYLHWYLQKPGQSPQLLIYKVSNRFSGVPDRFSGSGSGTDFTLKISRVEAEDVGVYYCSQNTHVPPTFGQGTKVEIERTVAAPSVFIFPPSDEQLKSGTASVVCLLNNFYPREAKVQWKVDNALQSGNSQESVTEQDSKDSTYSLSSTLTLSKADYEKHKVYACEVTHQGLSSPVTKSFNRGEC
notes: as for B1
B5: GpH7-A5/GpH7-B3 variant S337_11K/GpL16-k0 (antibody, human IgG1, kappa)
heavy 1: not shown
heavy 2: not shown
light: DIVMTQSPLSLPVTPGEPASISCQASESLVHSNRNTYLHWYLQKPGQSPQLLIYKVSNRFSGVPDRFSGSGSGTDFTLKISRVEAEDVGVYYCSQNTHVPPTFGQGTKVEIERTVAAPSVFIFPPSDEQLKSGTASVVCLLNNFYPREAKVQWKVDNALQSGNSQESVTEQDSKDSTYSLSSTLTLSKADYEKHKVYACEVTHQGLSSPVTKSFNRGEC
notes: as for B1
B6: GpH7-A5/GpH7-B3 variant S337_12R/GpL16-k0 (antibody, human IgG1, kappa)
heavy 1: not shown
heavy 2: not shown
light: DIVMTQSPLSLPVTPGEPASISCQASESLVHSNRNTYLHWYLQKPGQSPQLLIYKVSNRFSGVPDRFSGSGSGTDFTLKISRVEAEDVGVYYCSQNTHVPPTFGQGTKVEIERTVAAPSVFIFPPSDEQLKSGTASVVCLLNNFYPREAKVQWKVDNALQSGNSQESVTEQDSKDSTYSLSSTLTLSKADYEKHKVYACEVTHQGLSSPVTKSFNRGEC
notes: as for B1
B7: GpH7-A5/GpH7-B3 variant S337_19Q/GpL16-k0 (antibody, human IgG1, kappa)
heavy 1: not shown
heavy 2: not shown
light: DIVMTQSPLSLPVTPGEPASISCQASESLVHSNRNTYLHWYLQKPGQSPQLLIYKVSNRFSGVPDRFSGSGSGTDFTLKISRVEAEDVGVYYCSQNTHVPPTFGQGTKVEIERTVAAPSVFIFPPSDEQLKSGTASVVCLLNNFYPREAKVQWKVDNALQSGNSQESVTEQDSKDSTYSLSSTLTLSKADYEKHKVYACEVTHQGLSSPVTKSFNRGEC
notes: as for B1
B8: GpH7-A5/GpH7-B3 variant T335_01G/GpL16-k0 (antibody, human IgG1, kappa)
heavy 1: not shown
heavy 2: not shown
light: DIVMTQSPLSLPVTPGEPASISCQASESLVHSNRNTYLHWYLQKPGQSPQLLIYKVSNRFSGVPDRFSGSGSGTDFTLKISRVEAEDVGVYYCSQNTHVPPTFGQGTKVEIERTVAAPSVFIFPPSDEQLKSGTASVVCLLNNFYPREAKVQWKVDNALQSGNSQESVTEQDSKDSTYSLSSTLTLSKADYEKHKVYACEVTHQGLSSPVTKSFNRGEC
notes: as for B1
B9: GpH7-A5/GpH7-B3 variant T335_02A/GpL16-k0 (antibody, human IgG1, kappa)
heavy 1: not shown
heavy 2: not shown
light: DIVMTQSPLSLPVTPGEPASISCQASESLVHSNRNTYLHWYLQKPGQSPQLLIYKVSNRFSGVPDRFSGSGSGTDFTLKISRVEAEDVGVYYCSQNTHVPPTFGQGTKVEIERTVAAPSVFIFPPSDEQLKSGTASVVCLLNNFYPREAKVQWKVDNALQSGNSQESVTEQDSKDSTYSLSSTLTLSKADYEKHKVYACEVTHQGLSSPVTKSFNRGEC
notes: as for B1
B10: GpH7-A5/GpH7-B3 variant T335_05P/GpL16-k0 (antibody, human IgG1, kappa)
heavy 1: not shown
heavy 2: not shown
light: DIVMTQSPLSLPVTPGEPASISCQASESLVHSNRNTYLHWYLQKPGQSPQLLIYKVSNRFSGVPDRFSGSGSGTDFTLKISRVEAEDVGVYYCSQNTHVPPTFGQGTKVEIERTVAAPSVFIFPPSDEQLKSGTASVVCLLNNFYPREAKVQWKVDNALQSGNSQESVTEQDSKDSTYSLSSTLTLSKADYEKHKVYACEVTHQGLSSPVTKSFNRGEC
notes: as for B1
B11: GpH7-A5/GpH7-B3 variant T335_06M/GpL16-k0 (antibody, human IgG1, kappa)
heavy 1: not shown
heavy 2: not shown
light: DIVMTQSPLSLPVTPGEPASISCQASESLVHSNRNTYLHWYLQKPGQSPQLLIYKVSNRFSGVPDRFSGSGSGTDFTLKISRVEAEDVGVYYCSQNTHVPPTFGQGTKVEIERTVAAPSVFIFPPSDEQLKSGTASVVCLLNNFYPREAKVQWKVDNALQSGNSQESVTEQDSKDSTYSLSSTLTLSKADYEKHKVYACEVTHQGLSSPVTKSFNRGEC
notes: as for B1
B12: GpH7-A5/GpH7-B3 variant T335_12R/GpL16-k0 (antibody, human IgG1, kappa)
heavy 1: not shown
heavy 2: not shown
light: DIVMTQSPLSLPVTPGEPASISCQASESLVHSNRNTYLHWYLQKPGQSPQLLIYKVSNRFSGVPDRFSGSGSGTDFTLKISRVEAEDVGVYYCSQNTHVPPTFGQGTKVEIERTVAAPSVFIFPPSDEQLKSGTASVVCLLNNFYPREAKVQWKVDNALQSGNSQESVTEQDSKDSTYSLSSTLTLSKADYEKHKVYACEVTHQGLSSPVTKSFNRGEC
notes: as for B1
B13: GpH7-A5/GpH7-B3 variant Y296_04F/GpL16-k0 (antibody, human IgG1, kappa)
heavy 1: not shown
heavy 2: not shown
light: DIVMTQSPLSLPVTPGEPASISCQASESLVHSNRNTYLHWYLQKPGQSPQLLIYKVSNRFSGVPDRFSGSGSGTDFTLKISRVEAEDVGVYYCSQNTHVPPTFGQGTKVEIERTVAAPSVFIFPPSDEQLKSGTASVVCLLNNFYPREAKVQWKVDNALQSGNSQESVTEQDSKDSTYSLSSTLTLSKADYEKHKVYACEVTHQGLSSPVTKSFNRGEC
notes: as for B1
B14: GpH7-A5/GpH7-B3 variant Y296_06M/GpL16-k0 (antibody, human IgG1, kappa)
heavy 1: not shown
heavy 2: not shown
light: DIVMTQSPLSLPVTPGEPASISCQASESLVHSNRNTYLHWYLQKPGQSPQLLIYKVSNRFSGVPDRFSGSGSGTDFTLKISRVEAEDVGVYYCSQNTHVPPTFGQGTKVEIERTVAAPSVFIFPPSDEQLKSGTASVVCLLNNFYPREAKVQWKVDNALQSGNSQESVTEQDSKDSTYSLSSTLTLSKADYEKHKVYACEVTHQGLSSPVTKSFNRGEC
notes: as for B1
B15: GpH7-A5/GpH7-B3 variant Y296_07I/GpL16-k0 (antibody, human IgG1, kappa)
heavy 1: not shown
heavy 2: not shown
light: DIVMTQSPLSLPVTPGEPASISCQASESLVHSNRNTYLHWYLQKPGQSPQLLIYKVSNRFSGVPDRFSGSGSGTDFTLKISRVEAEDVGVYYCSQNTHVPPTFGQGTKVEIERTVAAPSVFIFPPSDEQLKSGTASVVCLLNNFYPREAKVQWKVDNALQSGNSQESVTEQDSKDSTYSLSSTLTLSKADYEKHKVYACEVTHQGLSSPVTKSFNRGEC
notes: as for B1

Legend:
[1] = target: T1, FcγRIIa R (FcγRIIa allotype with Arg at …); experiment: SPR (Biacore), antibody captured, FcγR analyte; vs GpH7-A5/GpH7-B3/GpL16-k0 = 100
Method: (§1) The heterodimerized antibodies He Abs in which one of the H chains was introduced with an alteration were assayed for their binding activities to each activating FcγR and inhibitory FcγR according to the method described in Example 4. […] The activating FcγRs in FIGS. 26, 27, 28, and 29 are FcγRIa, FcγRIIa (R), FcγRIIa (H), and FcγRIIIa, respectively.
(§2) Analysis of interaction between objective antibody and the FcγR was carried out using Biacore T100 (GE Healthcare). HBS-EP+ (GE Healthcare) was used as the running buffer, and the measurement temperature was set to 25° C. Chips produced by immobilizing the antigen peptide by the amine coupling method to a Series S Sencor Chip CM5 (GE Healthcare), or alternatively, chips produced by allowing preliminarily biotinylated antigen peptides to interact with and immobilize onto a Series S Sensor Chip SA (certified) (GE Healthcare) were used. Antibodies of interest were captured onto an antigen peptide-immobilized chip, and allowed to interact to each FcγR diluted with running buffer. To regenerate and repeatedly use the chip, the antibodies captured on the chip were washed off by reacting 10 mM glycine-HCl, pH 1.5.

[2] = target: T2, FcγRIIb, extracellular domain with …; experiment: as above
Method: as §1, §2

He/Con_2aR [1]	He/Con_2b [2]	Binder
105 relative (HeCon Ab = 100)	97.2 relative (HeCon Ab = 100)	B1
106 relative (HeCon Ab = 100)	98.9 relative (HeCon Ab = 100)	B2
105 relative (HeCon Ab = 100)	97.8 relative (HeCon Ab = 100)	B3
105 relative (HeCon Ab = 100)	96.7 relative (HeCon Ab = 100)	B4
103 relative (HeCon Ab = 100)	94.3 relative (HeCon Ab = 100)	B5
107 relative (HeCon Ab = 100)	99.5 relative (HeCon Ab = 100)	B6
106 relative (HeCon Ab = 100)	99.7 relative (HeCon Ab = 100)	B7
104 relative (HeCon Ab = 100)	96.7 relative (HeCon Ab = 100)	B8
102 relative (HeCon Ab = 100)	94 relative (HeCon Ab = 100)	B9
104 relative (HeCon Ab = 100)	99.9 relative (HeCon Ab = 100)	B10
105 relative (HeCon Ab = 100)	99.4 relative (HeCon Ab = 100)	B11
100 relative (HeCon Ab = 100)	91.9 relative (HeCon Ab = 100)	B12
109 relative (HeCon Ab = 100)	99.2 relative (HeCon Ab = 100)	B13
101 relative (HeCon Ab = 100)	87.8 relative (HeCon Ab = 100)	B14
101 relative (HeCon Ab = 100)	84.3 relative (HeCon Ab = 100)	B15
